Assay results: PMC2845718 (2009)

B1: MDMX 24-108 (protein)
chain: INQVRPKLPLLKILHAAGAQGEMFTVKEVMHYLGQYIMVKQLYDQQEQHMVYCGGDLLGELLGRQSFSVKDPSPLYDMLRKNLVT
B2: MDM2 25-109 (protein)
chain: ETLVRPKPLLLKLLKSVGAQKDTYTMKEVLFYLGQYIMTKRLYDEKQQHIVYCSNDLLGDLFGVPSFSVKEHRKIYTMIYRNLVV

Tests used:
[1] = target: Stingin-1; experiment: SPR
[2] = target: Stingin-2; experiment: SPR
[3] = target: Stingin-4; experiment: SPR competition

Binder	Kd [1] [nM]	Kd [2] [nM]	Kd [3] [nM]
B1	11.4	18	252
B2	25.1	35.2	
